Results as given in publication PMC11079059, “Development of a new affinity maturation protocol for the construction of an internalizing anti-nucleolin antibody library” (Scientific Reports, 2024).
Blank lines part the entries; values can stand above or below the binder they belong to.

Target: T1, nucleolin (Homo sapiens, UniProt P19338)
T1 construct: The cells were not transfected; also called cell surface nucleolin; source: endogenous, on nucleolin-overexpressing MDA-MB-435S cells
Assay: flow cytometry on cells; 1.5 x 10^5 MDA-MB-435S cells with 1 µg of each purified VHH, 45 min at 4 °C, PBS with 1% BSA; detected with anti-HA-Alexa Fluor 647; MFI normalised to cells with secondary antibody only; a representative experiment
Conditions: one partner purified

T1 sequence (P19338 whole entry): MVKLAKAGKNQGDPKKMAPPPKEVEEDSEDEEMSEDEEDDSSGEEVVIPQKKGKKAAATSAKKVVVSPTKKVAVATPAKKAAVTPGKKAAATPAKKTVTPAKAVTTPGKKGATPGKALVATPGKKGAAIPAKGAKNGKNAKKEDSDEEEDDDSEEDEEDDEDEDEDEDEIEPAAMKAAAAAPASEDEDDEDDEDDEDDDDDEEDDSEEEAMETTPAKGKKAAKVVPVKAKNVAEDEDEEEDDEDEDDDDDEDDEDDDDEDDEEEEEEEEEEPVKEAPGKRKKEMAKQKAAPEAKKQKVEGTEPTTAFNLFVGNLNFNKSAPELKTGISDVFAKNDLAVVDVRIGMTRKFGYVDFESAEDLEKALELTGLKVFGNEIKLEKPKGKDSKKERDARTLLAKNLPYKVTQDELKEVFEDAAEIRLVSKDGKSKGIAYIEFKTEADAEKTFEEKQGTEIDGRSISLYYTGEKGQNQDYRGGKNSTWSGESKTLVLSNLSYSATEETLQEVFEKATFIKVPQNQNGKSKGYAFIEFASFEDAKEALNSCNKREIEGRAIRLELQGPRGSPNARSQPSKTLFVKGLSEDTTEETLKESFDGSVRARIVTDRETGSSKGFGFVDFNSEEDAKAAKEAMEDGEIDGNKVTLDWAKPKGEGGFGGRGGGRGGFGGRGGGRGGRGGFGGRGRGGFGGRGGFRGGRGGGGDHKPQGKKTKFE

- fold increase in binding (normalised MFI) relative to the reference VHH: 1.4 fold
B1: VHH clone D10 (VHH)
VHH: QVQLQESGGGLVQPGGSLRLSCAASGRASASSARSARAIGWFRQAPGKEREFVARIYWSSGNTYYADSVKGRFAISRDIAKNTVDLTMNNLEPEDTAVYYCAAPQRRSARLSAWGQGTQVTVSS
notes: source: ER2738 E. coli, IPTG induction, purified (Dynabeads His-Tag Isolation & Pulldown)

- fold increase in binding (normalised MFI) relative to the reference VHH: 2 fold
B2: VHH clone D11 (VHH)
VHH: B1 VHH
notes: as for B1
